Data taken from publication PMC5839545 (2018).

Molecular target: CENP-T (Homo sapiens, UniProt Q96BT3)
Experiment: SW-FCCS

Sequence of CENP-T (Q96BT3 whole entry): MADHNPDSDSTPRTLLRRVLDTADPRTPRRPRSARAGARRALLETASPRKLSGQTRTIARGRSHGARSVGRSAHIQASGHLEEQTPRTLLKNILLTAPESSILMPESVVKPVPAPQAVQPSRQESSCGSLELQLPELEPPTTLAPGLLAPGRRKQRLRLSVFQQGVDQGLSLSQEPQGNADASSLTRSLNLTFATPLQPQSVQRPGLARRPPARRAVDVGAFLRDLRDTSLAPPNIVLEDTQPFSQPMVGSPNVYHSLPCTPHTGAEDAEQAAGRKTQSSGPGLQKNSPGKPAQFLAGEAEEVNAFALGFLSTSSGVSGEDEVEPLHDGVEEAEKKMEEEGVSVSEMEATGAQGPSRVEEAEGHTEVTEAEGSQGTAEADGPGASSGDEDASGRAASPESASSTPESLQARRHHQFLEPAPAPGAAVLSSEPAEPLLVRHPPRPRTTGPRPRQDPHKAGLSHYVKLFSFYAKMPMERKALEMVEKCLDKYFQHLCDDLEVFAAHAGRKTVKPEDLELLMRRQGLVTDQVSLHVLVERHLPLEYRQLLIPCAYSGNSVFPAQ

Kd: 1800 nM
B1: Spc24 (protein)
chain: MAAFRDIEEVSQGLLSLLGANRAEAQQRRLLGRHEQVVERLLETQDGAEKQLREILTMEKEVAQSLLNAKEQVHQGGVELQQLEAGLQEAGEEDTRLKASLLQLTRELEELKEIEADLERQEKEVDEDTTVTIPSAVYVAQLYHQVSKIEWDYECEPGMVKGIHHGPSVAQPIHLDSTQLSRKFISDYLWSLVDTEW
